Measured values published in patent publication US20100279937A1, “Method of Inhibiting Angiogenesis, Tumorigenesis and Cathepsin Activity” (priority 2006, published 2010).

Tests used:
cathepsin B [1] = target: T1, cathepsin B (Homo sapiens, UniProt P07858); assay: Secreted cathepsin B activity in U87MG conditioned media; assay type: biochemical; details: 10 μM CA074-ME; overnight incubation
T1 construct: Levels of cathepsin B activity were also measured in U87MG CM alone or pre-incubated; endogenous in cells; host or cells: U87MG (ATCC), 3-day serum-free conditioned medium
Procedure: The human glioma cell line U87MG was established from surgically removed type III glioma/glioblastoma and obtained from ATCC. Cells (5×10^4 cells/ml) were plated in poly-L-lysine pre-coated dishes and grown at 37° C. in D-MEM (DME) supplemented with 100 U/ml penicillin, 100 μg/ml streptomycin and 10% heat-inactivated fetal bovine serum (FBS) (HyClone, Logan, Utah) in humidified atmosphere of 5% CO2/95% air until reached 80% confluence. Then, media were removed and the cells incubated for 3 days in serum-free DME to obtain conditioned media (CM). Conditioned media were collected and filtered (Millex-GV sterilizing filter membrane, 0.22 μm). Cells were then harvested for molecular and biochemical assays. […]

U87MG cells [2] = assay: U87MG growth in semi-solid (soft) agar; assay type: cell-based, human; details: Alamar Blue
Procedure: […] Approximately 15,000 cells±treatment were resuspended in 150 μl medium containing 0.3% agar, and seeded onto a well of a 24-well plate previously layered with 250 μl 0.6% agar. The solidified cell layer was covered with 50 μl DME±treatment which was replaced every three days over a 21 day period. Phase contrast images (6 fields/well) were captured using a digital video camera (Olympus U-CMT) and analyzed with Northern Eclipse v.5.0 software. Color images were transformed to grey scale, thresholded, and then converted to binary images. Number and area of colonies per field were calculated. In order to measure cell viability, at the end of the experiment, 40 μl alamar blue was added to each well and fluorescence readings were performed every 10 min for a period of 180 min. Experiments were repeated 2-3 times in triplicates.

[3] = system: human brain endothelial cells (HBEC); assay: Capillary-like tube (CLT) formation by HBEC on Matrigel (in vitro angiogenesis); assay type: cell-based; details: 20 nM
Procedure: Human brain endothelial cells (HBEC) were obtained from small intracortical microvessels and capillaries (20-112 μm) harvested from temporal cortex from patients treated surgically for idiopathic epilepsy. Tissues were obtained with approval from the Institutional Research Ethics Committee. HBEC were separated from smooth muscle cells with cloning rings and grown at 37° C. in HBEC media containing Earle's salts, 25 mM 4-(2-hydroxyethyl)-1-piperazineethanesulfonic acid (HEPES), 4.35 g/L sodium bicarbonate, and 3 mM L-glutamine, 10% FBS, 5% human serum, 20% of media conditioned by murine melanoma cells (mouse melanoma, Cloudman S91, clone M-3, melanin-producing cells), 5 μg/ml insulin, […], 5 ng/ml selenium, and 10 μg/ml endothelial cell growth supplement. HBEC cultures were routinely characterized morphologically and biochemically.
(§1) In vitro angiogenesis was assessed by endothelial tube formation in growth factor reduced Matrigel™ (BD Bioscience, Bedford, Mass.). 24-well plates were coated with 300 μl of unpolymerized Matrigel™ (5-7 mg prot/ml) and allowed to polymerize for 90 min at 37° C. HBEC (40,000 cells) were suspended in 500 μl of either DME, serum-free U87MG CM (collected as described in Cell Cultures) or growth factors (VEGF, IGF-1, bFGF) in the absence or presence of 20 nM of either full length recombinant IGFBP-1 (IBP1, produced at BRI-NRC), IGFBP-2 (IBP2, produced at BRI-NRC and purchased from R&D systems, Minneapolis), IGFBP-3 (IBP3, from R&D systems), IGFBP-4 (IBP4, produced at BRI-NRC), IGFBP-5 (IBP5, produced at BRI-NRC and purchased from R&D systems) and IGFBP-6 (IBP6, from R&D systems) or the C-terminal protein fragments of IGFP-1 (CIBP1), IGFBP-2 (CIBP2), IGFBP-4 (CIBP4), IGFBP-5 (CIBP5) and IGFBP-6 (CIBP6), all produced at BRI-NRC). The ability of a synthetic membrane permeable cathepsin B inhibitor (CA074-ME, EMD Biosciences, Canada) to inhibit angiogenes and cathepsin B activity was also studied. CLT formation was analyzed after 24 h using an Olympus 1×50 microscope. Phase contrast images were captured with a digital video camera (Olympus U-CMT) and analyzed using Northern Eclipse v.5.0 software. Experiments were repeated three times. In order to determine the levels of cathepsin B activity in each experimental condition, at the end of the experiment, 6 μl of 26× Magic Red™ Cathepsin B reagent (Immunochemistry Technologies, LLC) were added to all the wells and maintained at 37° C. in dark for two hours. Cells were washed twice with HBSS and intracellular fluorescence quantification (530/25 nm excitation and 645/40 nm emission) was performed using a cytofluorimeter plate reader (Bio-Tek FL600).

U87MG cells on CAM = assay: Experimental glioma assay: U87MG tumors on chick chorioallantoic membrane (CAM); assay type: in vivo, chicken (Gallus gallus)
Procedure: Fertilized chicken (Gallus gallus) eggs were obtained from the Canadian Food Inspection Agency and placed into an egg incubator at 37° C. and 67-70% humidity (day 0). At day 3, windows were cut in the egg shell and covered with surgical tape (Durapore,) until day 10. Then, a sterile Nunc Thermanox (Nunc Inc., Naperville, Ill.) plastic ring was placed onto the CAM, the delimited surface gently lacerated with a scalpel blade and a pellet of 10^6 U87MG cells deposited into the center of the ring. […] Digital photos were taken using a Canon 40D camera. At day 17, tumors were carefully removed from the CAM and weighted.

[4] = system: human brain endothelial cells (HBEC); assay: Confocal microscopy of AF647-CIBP-4 in HBEC; assay type: cell-based; details: 100 nM AF647 conjugate, 90 min
Procedure: 80 μl of 1 mM Alexa Fluor 647-NHS in DMSO was added to 0.4 ml of recombinant CIBP-4 (0.2 mg/ml) in 100 mM carbonate pH 8.4, and sample was incubated overnight at room temperature. The reaction was stopped with 150 μl of 200 mM ethanolamine pH 8.0. To remove free dye, sample was diluted with 4.5 ml of water and loaded onto 1 ml Co^+2-Talon Metal Affinity column equilibrated with PBS. The column was exhaustively washed with PBS and CIBP-4 eluted with 2 ml of 1 M imidazole in PBS. To remove imidazole from AF647-CIBP-4 conjugate, the sample was concentrated to approximately 200 μl on Biomax (M.W. cut-off 5,000), diluted to original volume with PBS and concentrated again. That process of concentration/dilution was repeated three times. Final volume 0.5 ml (0.14 mg/ml). Recovery 86%.
HBEC (100,000 cell/well in a 24-well format plate) and U87MG (50,000) were respectively seeded on human fibronectin- (40 μg/ml) or poly-L-lysine-coated cover slips (Bellco Biotechnology) in 400 μl HBEC/U87MG media and grown until reached 80% confluence. Cells were then washed twice with DME and incubated in DME for 30 min at 37° C. […] Confocal images of […] were sequentially obtained using 488, 647 and 540-590 nm excitation laser lines to detect DiOC5(3) (510-525 nm emission) and Alexa 647 (670-810 nm emission) and Magic Red™ Cathepsin B (>610 nm) fluorescence.

[5] = system: human brain endothelial cells (HBEC); details: disclosed in copending PCT/CA2006/000250; cited from earlier work
U87MG cells [6] = details: disclosed in copending PCT/CA2006/000250; cited from earlier work
cathepsin B [7] = target: T1, cathepsin B; assay: Intracellular cathepsin B activity in HBEC seeded on Matrigel (Magic Red); assay type: cell-based; details: 20 nM
Procedure: as §1
To determine the ability of these angiogenic factors to stimulate cathepsin B activity in HBEC, a membrane permeable cathepsin B target sequence peptide (Arginine-Arginine) linked to an amide substituted fluorophore, cresyl violet (Magic Red™, Immunochemistry Technologies, LLC) was used. Following enzyme cleavage at the arginine amide linkage site, the cresyl violet fluorophore generates red fluorescence when excited at 550-590 nm.

Molecule: CCCNC(=O)[C@H]1O[C@@H]1C(=O)N[C@H](C(=O)N1CCC[C@H]1C(=O)OC)[C@@H](C)CC [CA074-ME, reference compound]
- inhibition of secreted cathepsin B activity in U87MG CM (cathepsin B [1]): ~40%
- inhibition of U87MG colony formation in soft agar (efficacy) (U87MG cells [2]; 10 μM CA074-ME): ~70%

B1: CIBP4: IGFBP-4 C-terminal fragment (aas 157-258, SEQ ID No. 6) with StreptagII-octahistidine tag (protein)
chain: MLLLLLLLGLRLQLSLGIASKVNGAPREDARPVPQGSCQSELHRALERLAASQSRTHEDLYIIPIPNCDRNGNFHPKQCHPALDGQRGKCWCVDRKTGVKLPGGLEPKGELDCHQLADSFREVDPWSHPQFEKTGHHHHHHHHGGQ
modifications: StreptagII-octahistidine tag; C-terminal fragment of IGFBP-4
- inhibition of angiogenesis (CLT formation by HBEC in Matrigel) ([3]; stimuli U87MG CM, VEGF, IGF-1, bFGF, overnight): reduction in CLT formation
- inhibition of U87MG colony formation in soft agar (efficacy) (U87MG cells [2]; 20 nM): ~50%
- average size of the tumors in each weight interval vs vehicle (U87MG cells on CAM; CAM): similar
- increase in small size tumors (0-15 mg) vs vehicle (U87MG cells on CAM; CAM): three-fold
- reduction in number of large size tumors (20-36 mg) vs vehicle (U87MG cells on CAM; CAM): 3 fold
- shift of tumor weight frequency distribution towards smaller tumors vs vehicle (U87MG cells on CAM; CAM, intervals 0-15, 15-20, 20-36 mg): ~3 fold
- reduction of growth of U87MG cells on CAM (tumor weight) vs vehicle (U87MG cells on CAM; CIBP4 250 ng/ml as printed, applied days 11-14, weighed day 17, p<0.005): 20-25%
- co-localization with lysosomes (Lysotracker) in HBEC [4]: Co-localization
- inhibition of angiogenic response induced by U87MG conditioned media and growth factors (bFGF, VEGF, IGF-1) [5]: can inhibit angiogenic response
- reduction of U87MG colony formation in soft agar (U87MG cells [6]): able to reduce U87MG colony formation

B2: IBP2: recombinant full-length IGFBP-2 (aas 1-328, SEQ ID No. 3); produced at BRI-NRC and purchased from R&D systems (protein)
chain: MLPRVGCPALPLPPPPLLPLLPLLLLLLGASGGGGGARAEVLFRCPPCTPERLAACGPPPVAPPAAVAAVAGGARMPCAELVREPGCGCCSVCARLEGEACGVYTPRCGQGLRCYPHPGSELPLQALVMGEGTCEKRRDAEYGASPEQVADNGDDHSEGGLVENHVDSTMNMLGGGGSAGRKPLKSGMKELAVFREKVTEQHRQMGKGGKHHLGLEEPKKLRPPPARTPCQQELDQVLERISTMRLPDERGPLEHLYSLHIPNCDKHGLYNLKQCKMSLNGQRGECWCVNPNTGKLIQGAPTIRGDPECHLFYNEQQEARGVHTQRMQGSGWSHPQFEKTGHHHHHHHHGGQ
modifications: human
notes: produced at BRI-NRC and purchased from R&D systems
- inhibition of angiogenic response induced by IGF-1 ([3]; HBEC on Matrigel, IGF-1 (150 ng/ml)): completely inhibit
- inhibition of angiogenic response induced by U87MG CM ([3]; HBEC on Matrigel, U87MG CM): did not inhibit
- inhibition of angiogenic response induced by VEGF ([3]; HBEC on Matrigel, VEGF (20 ng/ml)): completely inhibit
- inhibition of angiogenic response induced by bFGF ([3]; HBEC on Matrigel, bFGF (20 ng/ml)): did not inhibit
- inhibition of intracellular cathepsin B activity induced by IGF-1 (cathepsin B [7]; IGF-1 (150 ng/ml)): completely inhibit
- inhibition of intracellular cathepsin B activity induced by U87MG CM (cathepsin B [7]; U87MG CM): did not inhibit
- inhibition of intracellular cathepsin B activity induced by VEGF (cathepsin B [7]; VEGF (20 ng/ml)): completely inhibit
- inhibition of intracellular cathepsin B activity induced by bFGF (cathepsin B [7]; bFGF (20 ng/ml)): did not inhibit

B3: IGFBP-4: recombinant full-length IGFBP-4 (SEQ ID No. 5) with StreptagII-octahistidine tag (protein)
chain: MLPLCLVAALLLAAGPGPSLGDEAIHCPPCSEEKLARCRPPVGCEELVREPGCGCCATCALGLGMPCGVYTPRCGSGLRCYPPRGVEKPLHTLMHGQGVCMELAEIEAIQESLQPSDKDEGDHPNNSFSPCSAHDRRCLQKHFAKIRDRSTSGGKMKVNGAPREDARPVPQGSCQSELHRALERLAASQSRTHEDLYIIPIPNCDRNGNFHPKQCHPALDGQRGKCWCVDRKTGVKLPGGLEPKGELDCHQLADSFREVDPWSHPQFEKTGHHHHHHHHGGQ
modifications: StreptagII-octahistidine tag; human
- reduction of U87MG colony formation in soft agar (U87MG cells [6]): able to reduce U87MG colony formation
